Measured values from FireProtDB (doi:10.1111/j.1432-1033.1995.tb20713.x).

B1: Adenylate kinase, P07170 (parent)
chain: MSSSESIRMVLIGPPGAGKGTQAPNLQERFHAAHLATGDMLRSQIAKGTQLGLEAKKIMDQGGLVSDDIMVNMIKDELTNNPACKNGFILDGFPRTIPQAEKLDQMLKEQGTPLEKAIELKVDDELLVARITGRLIHPASGRSYHKIFNPPKEDMKDDVTGEALVQRSDDNADALKKRLAAYHAQTEPIVDFYKKTGIWAGVDASQPPATVWADILNKLGKD

Variants of: B1
Settings: Saccharomyces cerevisiae (strain ATCC 204508 / S288c), Thermal, Fluorescence, reversible: yes, structure 2AKY, whole UniProt chain shown; for ddG of mutation (higher = less stable) / unfolding free energy: 25 °C

Variant | ddG of mutation (higher = less stable) (pH 7.5, MOPS-NaOH 30 mM) [kcal/mol] | unfolding free energy (pH 7.5, MOPS-NaOH 30 mM) [kcal/mol] | Tm (pH 7.5, MOPS-NaOH 30 mM) [°C] | change of melting temperature, mutant - wild type (higher = more stable) (pH 7.5, MOPS-NaOH 30 mM) [°C] | unfolding enthalpy (van 't Hoff) (pH 7.5, MOPS-NaOH 30 mM) [kcal/mol] | unfolding free energy (pH 5, Acetic acid-NaOH 30 mM) [kcal/mol] | Tm (pH 5, Acetic acid-NaOH 30 mM) [°C] | unfolding enthalpy (van 't Hoff) (pH 5, Acetic acid-NaOH 30 mM) [kcal/mol] | unfolding free energy (pH 4.5, Acetic acid-NaOH 30 mM) [kcal/mol] | Tm (pH 4.5, Acetic acid-NaOH 30 mM) [°C] | unfolding enthalpy (van 't Hoff) (pH 4.5, Acetic acid-NaOH 30 mM) [kcal/mol] | unfolding free energy (pH 7.6, MOPS-NaOH 30 mM) [kcal/mol] | Tm (pH 7.6, MOPS-NaOH 30 mM) [°C] | unfolding enthalpy (van 't Hoff) (pH 7.6, MOPS-NaOH 30 mM) [kcal/mol]
V10I | 1.2 | 2.63 | 46.2 | -1.5 | 64.5 |  |  |  |  |  |  |  |  | 
I215F | 1.91 | 1.91 | 40 | -7.7 | 59.8 |  |  |  |  |  |  |  |  | 
T79H | 2.15 | 1.67 | 46.6 | -1.1 | 50.2 | 2.87 | 46.8 | 68.1 |  |  |  |  |  | 
T112H |  |  |  |  |  |  |  |  | 0.72 | 40.2 | 31.1 | 1.2 | 42.9 | 41.8
N171D | 2.15 | 1.67 | 47.1 | -0.6 | 47.8 |  |  |  |  |  |  |  |  | 
